Two proteins from paper PMC11089518, “Development of Prolinol Containing Inhibitors of Hypoxanthine–Guanine–Xanthine Phosphoribosyltransferase: Rational Structure-Based Drug Design” (Journal of Medicinal Chemistry, 2024) can be followed below.

Data set [1] deals with the molecule itself. As to the kind of experiment: crystal structure; TbrHGPRT1 (8 mg/mL, 0.3 mM) with inhibitor 4 or 5, 0.2 M MgCl2, 0.1 M Bis-Tris pH 5.0, 20% PEG 3350, hanging drop; oligomer as refined in the asymmetric unit.
Data set [2] deals with the molecule itself. As to the kind of experiment: crystal structure; human HGPRT (10 mg/mL, 0.4 mM) with inhibitor 1 (0.3 M calcium acetate, 20% PEG 3350) or 5 (0.3 M sodium acetate, 17.5% PEG 3350), hanging drop; oligomer as refined in the asymmetric unit.

B1: Trypanosoma brucei hypoxanthine-guanine phosphoribosyltransferase isoform 1 (TBrHGPRT1) (enzyme, UniProt Q07010 1-210, looked up)
chain: MEPACKYDFATSVLFTEAELHTRMRGVAQRIADDYSNCNLKPLENPLVIVSVLKGSFVFTADMVRILGDFGVPTRVEFLRASSYGHDTKSCGRVDVKADGLCDIRGKHVLVLEDILDTALTLREVVDSLKKSEPASIKTLVAIDKPGGRKIPFTAEYVVADVPNVFVVGYGLDYDQSYREVRDVVILKPSVYETWGKELERRKAAGEAKR
notes: hypoxanthine-guanine phosphoribosyltransferase isoform HGPRT1 (cytoplasmic) of Trypanosoma brucei; source: expressed and purified to homogeneity as previously described
As usually defined, the stoichiometry N is the number of molecules, sites or subunits per partner or assembly. With B1, in data set [1], the “stoichiometry N” value worked out at 2.

B2: human hypoxanthine-guanine phosphoribosyltransferase (human HGPRT) (enzyme)
chain: MATRSPGVVISDDEPGYDLDLFCIPNHYAEDLERVFIPHGLIMDRTERLARDVMKEMGGHHIVALCVLKGGYKFFADLLDYIKALNRNSDRSIPMTVDFIRLKSYCNDQSTGDIKVIGGDDLSTLTGKNVLIVEDIIDTGKTMQTLLSLVRQYNPKMVKVASLLVKRTPRSVGYKPDFVGFEIPDKFVVGYALDYNEYFRDLNHVCVISETGKAKYKA
notes: hypoxanthine-guanine phosphoribosyltransferase, human; source: expressed and purified to homogeneity as previously described
B2: the “stoichiometry N” value in data set [2] was 4.
